Test results from US7657380.

molecular target: EGFR extracellular domain (R&D Systems) (UniProt P00533 25-645, limits assumed); assay: SPR, full length antibody over EGFR chip

Binder | binding result
C225 L4/H4 full length antibody (antibody, IgG1, V domains shown) VH: QVQLQQSGPGLVKPSQTLSLTCTVSGFSLTNYGVHWVRQAPGKGLEWLGVIWSGGNTDYNTSLKSRLTISKDNSKSQVVLTMTNMDPVDTATYYCARALTYYDYEFAYWGQGTLVTVSS VL: DILLTQSPAFLSVTPGEKVTITCRASQSIGTNIHWYQQKPDQSPKLLIKYASESISGIPSRFSGSGSGTDFTLTINSLEAEDAATYYCQQNNNWPTTFGAGTKLEIK | binds
C225 L4/H8 full length antibody (antibody, IgG1, V domains shown) VH: QVQLVESGGGLVQPGRSLRLSCAVSGFSLTNYGVHWVRQAPGKGLEWVSVIWSGGNTDYNTSVKGRFTISKDNSKSTVYLQMNSLRAEDTAVYYCARALTYYDYEFAYWGQGTLVTVSS VL: DILLTQSPAFLSVTPGEKVTITCRASQSIGTNIHWYQQKPDQSPKLLIKYASESISGIPSRFSGSGSGTDFTLTINSLEAEDAATYYCQQNNNWPTTFGAGTKLEIK | binds
C225 L4/H7 full length antibody (antibody, IgG1, V domains shown) VH: QVQLQQSGPGLVKPSQTLSLTCTVSGFSLTNYGVHWVRQPPGKGLEWIGVIWSGGNTDYNTSLKSRVTISKDNSKSQVSLKLSSVTAADTAVYYCARALTYYDYEFAYWGQGTLVTVSS VL: DILLTQSPAFLSVTPGEKVTITCRASQSIGTNIHWYQQKPDQSPKLLIKYASESISGIPSRFSGSGSGTDFTLTINSLEAEDAATYYCQQNNNWPTTFGAGTKLEIK | binds
C225 L3/H6 full length antibody (antibody, IgG1, V domains shown) VH: QVQLQQSGPGLVKPSQTLSLTCTVSGFSLTNYGVHWVRQAPGKGLEWVGVIWSGGNTDYNTSVKGRFTISKDNSKSQVYLQMNSLRAEDTAVYYCARALTYYDYEFAYWGQGTLVTVSS VL: DILLTQSPSSLSASVGDRVTITCRASQSIGTNIHWYQQKPDQSPKLLIKYASESISGIPSRFSGSGSGTDFTLTISSLQAEDVAVYYCQQNNNWPTTFGAGTKLEIK | binds
C225 L3/H8 full length antibody (antibody, IgG1, V domains shown) VH: QVQLVESGGGLVQPGRSLRLSCAVSGFSLTNYGVHWVRQAPGKGLEWVSVIWSGGNTDYNTSVKGRFTISKDNSKSTVYLQMNSLRAEDTAVYYCARALTYYDYEFAYWGQGTLVTVSS VL: DILLTQSPSSLSASVGDRVTITCRASQSIGTNIHWYQQKPDQSPKLLIKYASESISGIPSRFSGSGSGTDFTLTISSLQAEDVAVYYCQQNNNWPTTFGAGTKLEIK | binds

Continued, values first:

binding result | Binder
binds | C225 L4/H5 full length antibody (antibody, IgG1, V domains shown) VH: QVQLQQSGPGLVKPSQTLSLTCTVSGFSLTNYGVHWVRQAPGKGLEWLGVIWSGGNTDYNTPLTSRLTINKDNSKSQVVLQMNSLRAEDTAVYYCARALTYYDYEFAYWGQGTLVTVSS VL: DILLTQSPAFLSVTPGEKVTITCRASQSIGTNIHWYQQKPDQSPKLLIKYASESISGIPSRFSGSGSGTDFTLTINSLEAEDAATYYCQQNNNWPTTFGAGTKLEIK
binds | C225 L4/H6 full length antibody (antibody, IgG1, V domains shown) VH: QVQLQQSGPGLVKPSQTLSLTCTVSGFSLTNYGVHWVRQAPGKGLEWVGVIWSGGNTDYNTSVKGRFTISKDNSKSQVYLQMNSLRAEDTAVYYCARALTYYDYEFAYWGQGTLVTVSS VL: DILLTQSPAFLSVTPGEKVTITCRASQSIGTNIHWYQQKPDQSPKLLIKYASESISGIPSRFSGSGSGTDFTLTINSLEAEDAATYYCQQNNNWPTTFGAGTKLEIK
binds | C225 L3/H7 full length antibody (antibody, IgG1, V domains shown) VH: QVQLQQSGPGLVKPSQTLSLTCTVSGFSLTNYGVHWVRQPPGKGLEWIGVIWSGGNTDYNTSLKSRVTISKDNSKSQVSLKLSSVTAADTAVYYCARALTYYDYEFAYWGQGTLVTVSS VL: DILLTQSPSSLSASVGDRVTITCRASQSIGTNIHWYQQKPDQSPKLLIKYASESISGIPSRFSGSGSGTDFTLTISSLQAEDVAVYYCQQNNNWPTTFGAGTKLEIK
